# From the supplement of paper PMC10724198
# ± gives the standard deviation of the averaged measurements.
# Test system: Saccharomyces cerevisiae
# Assay: protein stability index of tFT-peptide fusion (C-terminal peptide) (PSI (0-1 scale)); higher = more stable (slower turnover)
# Details: genetic background: doa10 deletion; temperature: 30 C
# Protocol: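 MPS profiling in S. cerevisiae of the tFT-X12 degron library: putative degron peptides plus stable controls, 12 aa, fused to the C-terminus of a sfGFP-mCherry timer. Cells are FACS-sorted into 8 mCherry/sfGFP bins and deep-sequenced. PSI runs from 0 (unstable) to 1 (stable). Backgrounds are wild type, das1Δ and doa10Δ at 30 °C, and wild type, das1Δ, cdc34-1 and cdc53-1 at 37 °C; 2-3 technical replicates each.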
# 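Further: PSI is a weighted mean of sequencing reads over stability bins, variants kept only with over 10 reads, mCherry proximal and sfGFP distal, peptide attached via GGGS linker.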
row,Sequence,protein stability index
1,TMSGVTRCVLVL,0.339 ± 0.015
2,TNEWMDVKVFCY,0.449 ± 0.028
3,TSFSSGEALGVG,0.4553 ± 0.0011
4,TVHVIVVCRELA,0.201 ± 0.014
5,TVRLPLILPCVL,0.414 ± 0.0034
6,TVRVWPRNLWFS,0.111 ± 0.0029
7,TWGGGRVSLGVG,0.3442 ± 0.0015
8,TYHRSYLLATVV,0.181 ± 0.0023
9,VACTCILVALVV,0.0424 ± 0.0038
10,VAFLYCHFFYCI,0.342 ± 0.0038
11,VAVFFFCRVFFL,0.186 ± 0.02
12,VCCYILFFLFPV,0.322 ± 0.0058
13,VCLRICLVTLMM,0.2405 ± 0.0017
14,VCPCCPYVMIAG,0.318 ± 0.0013
15,VCSCLVLVFCCC,0.207 ± 0.025
16,VCVARICIWDFL,0.413 ± 0.0074
17,VCWVYESWKCLA,0.0888 ± 0.014
18,VCYLMRSLTFAY,0.319 ± 0.021
19,VECVCVVVVRRM,0.266 ± 0.0088
20,VFLCVRLGFIFL,0.404 ± 0.02
21,VFLLCLGFLVFS,0.241 ± 0.024
22,VFLRRFGVPWVF,0.198 ± 0.0071
23,VFLSCFFVSWVV,0.202 ± 0.011
24,VFLYVYAVWFLV,0.1102 ± 0.00096
25,VFSFLYHVVPVL,0.324 ± 0.018
26,VFVMRDGFLRKV,0.301 ± 0.013

row,Sequence,protein stability index
1,VFWISRLYLASY,0.42 ± 0.017
2,VGDFFVLVGFVA,0.336 ± 0.0095
3,VGDIRSFALWYA,0.656 ± 0.038
4,VGGGGRFWVCVG,0.2122 ± 0.0019
5,VGVSCLVFFGVV,0.484 ± 0.026
6,VIAYSLLSWGDF,0.403 ± 0.029
7,VLDFSVPRHVLH,0.661 ± 0.013
8,VLFFCLVIYVGV,0.141 ± 0.015
9,VLILFFLVVFYV,0.2543 ± 0.0024
10,VLLCASPMLAVV,0.249 ± 0.0027
11,VLLCGCVWLWWG,0.349 ± 0.013
12,VLLFGLAFFFSF,0.222 ± 0.013
13,VLLGYPRILSLF,0.1646 ± 0.0013
14,VLLRSRLLRRLS,0.137 ± 0.013
15,VLRCIWLCFLSV,0.448 ± 0.039
16,VLRLVLFVLISV,0.2853 ± 0.0015
17,VLSCVWFVVVGV,0.202 ± 0.0034
18,VLYWTGTLFVSL,0.195 ± 0.019
19,VPIIVVVYVFVT,0.105 ± 0.025
20,VRFLLSLCCALL,0.5436 ± 0.0034
21,VRLYLRSCVVES,0.181 ± 0.0071
22,VRMVIFSSVYLT,0.256 ± 0.008
23,VRWLVFFLFLFG,0.322 ± 0.0038
24,VSCLDLCFVISR,0.528 ± 0.029
25,VSCYYVFLIPFW,0.408 ± 0.018
26,VSFLLYNFLSVF,0.053 ± 0.019

row,Sequence,protein stability index
1,VSFLVSIFVSGV,0.2 ± 0.025
2,VSLLSLGYVFVY,0.184 ± 0.0098
3,VSLLVFVVSSRV,0.223 ± 0.0068
4,VSPPPLSPPLSR,0.686 ± 0.0078
5,VTMTPSLCFSYS,0.364 ± 0.0098
6,VTRLLLSRIDCY,0.346 ± 0.011
7,VVFLFVEAVVGV,0.0288 ± 0.0048
8,VVFVVGAPPVLC,0.323 ± 0.016
9,VVGVVVCWGCGW,0.369 ± 0.021
10,VVPWLGYVSCFS,0.324 ± 0.0094
11,VVRAVLCVCASV,0.387 ± 0.012
12,VVRYGGVIAFRG,0.579 ± 0.072
13,VVWCLLARVLLV,0.1578 ± 0.00094
14,VWICPTLFLLFS,0.45736 ± 0.00021
15,VYDVSVGVAVVG,0.291 ± 0.017
16,VYKSTHKIYILT,0.318 ± 0.0091
17,VYQAFIFRMSLF,0.147 ± 0.0025
18,VYRVTGSWLMWV,0.353 ± 0.03
19,VYTVGFVCWLVY,0.185 ± 0.014
20,VYWRGLHLQRLL,0.26 ± 0.0053
21,WALWGFVFWDWW,0.3786 ± 0.0011
22,WCGLFCRSVFVV,0.0996 ± 0.0021
23,WDEVVAIVVCPV,0.242 ± 0.0082
24,WFALFYFLVSAF,0.157 ± 0.008
25,WFCYFSLYVFLL,0.133 ± 0.012
26,WFFRCLFLLSLF,0.188 ± 0.015

# Same assay, conditions: genetic background: wild type; temperature: 30 C
row,Sequence,protein stability index
1,TMSGVTRCVLVL,0.395 ± 0.02
2,TNEWMDVKVFCY,0.486 ± 0.04
3,TSFSSGEALGVG,0.445 ± 0.013
4,TVHVIVVCRELA,0.244 ± 0.025
5,TVRLPLILPCVL,0.42 ± 0.025
6,TVRVWPRNLWFS,0.111 ± 0.021
7,TWGGGRVSLGVG,0.359 ± 0.044
8,TYHRSYLLATVV,0.224 ± 0.024
9,VACTCILVALVV,0.0686 ± 0.035
10,VAFLYCHFFYCI,0.37 ± 0.014
11,VAVFFFCRVFFL,0.211 ± 0.024
12,VCCYILFFLFPV,0.337 ± 0.026
13,VCLRICLVTLMM,0.261 ± 0.033
14,VCPCCPYVMIAG,0.336 ± 0.043
15,VCSCLVLVFCCC,0.237 ± 0.015
16,VCVARICIWDFL,0.438 ± 0.013
17,VCWVYESWKCLA,0.103 ± 0.0097
18,VCYLMRSLTFAY,0.337 ± 0.024
19,VECVCVVVVRRM,0.31 ± 0.021
20,VFLCVRLGFIFL,0.352 ± 0.023
21,VFLLCLGFLVFS,0.275 ± 0.02
22,VFLRRFGVPWVF,0.227 ± 0.02
23,VFLSCFFVSWVV,0.204 ± 0.015
24,VFLYVYAVWFLV,0.119 ± 0.053
25,VFSFLYHVVPVL,0.348 ± 0.024
26,VFVMRDGFLRKV,0.341 ± 0.015

row,Sequence,protein stability index
1,VFWISRLYLASY,0.362 ± 0.023
2,VGDFFVLVGFVA,0.382 ± 0.022
3,VGDIRSFALWYA,0.646 ± 0.011
4,VGGGGRFWVCVG,0.237 ± 0.025
5,VGVSCLVFFGVV,0.509 ± 0.021
6,VIAYSLLSWGDF,0.371 ± 0.021
7,VLDFSVPRHVLH,0.678 ± 0.035
8,VLFFCLVIYVGV,0.187 ± 0.027
9,VLILFFLVVFYV,0.237 ± 0.021
10,VLLCASPMLAVV,0.297 ± 0.011
11,VLLCGCVWLWWG,0.364 ± 0.014
12,VLLFGLAFFFSF,0.241 ± 0.029
13,VLLGYPRILSLF,0.167 ± 0.021
14,VLLRSRLLRRLS,0.137 ± 0.038
15,VLRCIWLCFLSV,0.4 ± 0.013
16,VLRLVLFVLISV,0.268 ± 0.015
17,VLSCVWFVVVGV,0.22 ± 0.033
18,VLYWTGTLFVSL,0.233 ± 0.028
19,VPIIVVVYVFVT,0.134 ± 0.038
20,VRFLLSLCCALL,0.518 ± 0.021
21,VRLYLRSCVVES,0.217 ± 0.026
22,VRMVIFSSVYLT,0.26 ± 0.027
23,VRWLVFFLFLFG,0.327 ± 0.022
24,VSCLDLCFVISR,0.514 ± 0.025
25,VSCYYVFLIPFW,0.409 ± 0.017
26,VSFLLYNFLSVF,0.0707 ± 0.012

row,Sequence,protein stability index
1,VSFLVSIFVSGV,0.194 ± 0.048
2,VSLLSLGYVFVY,0.216 ± 0.033
3,VSLLVFVVSSRV,0.255 ± 0.022
4,VSPPPLSPPLSR,0.673 ± 0.0092
5,VTMTPSLCFSYS,0.396 ± 0.01
6,VTRLLLSRIDCY,0.367 ± 0.025
7,VVFLFVEAVVGV,0.0238 ± 0.0054
8,VVFVVGAPPVLC,0.365 ± 0.0082
9,VVGVVVCWGCGW,0.397 ± 0.018
10,VVPWLGYVSCFS,0.366 ± 0.032
11,VVRAVLCVCASV,0.413 ± 0.021
12,VVRYGGVIAFRG,0.691 ± 0.13
13,VVWCLLARVLLV,0.167 ± 0.019
14,VWICPTLFLLFS,0.374 ± 0.018
15,VYDVSVGVAVVG,0.346 ± 0.025
16,VYKSTHKIYILT,0.364 ± 0.028
17,VYQAFIFRMSLF,0.159 ± 0.02
18,VYRVTGSWLMWV,0.357 ± 0.019
19,VYTVGFVCWLVY,0.176 ± 0.025
20,VYWRGLHLQRLL,0.29 ± 0.028
21,WALWGFVFWDWW,0.365 ± 0.023
22,WCGLFCRSVFVV,0.11 ± 0.023
23,WDEVVAIVVCPV,0.3 ± 0.016
24,WFALFYFLVSAF,0.187 ± 0.0045
25,WFCYFSLYVFLL,0.105 ± 0.019
26,WFFRCLFLLSLF,0.178 ± 0.026
